Reference: US20180155451A1 (published 2018)

T1: FcγRIIa R type extracellular domain with C-terminal His tag (human, UniProt P12318 34-217)
T1 construct: extracellular domain; also called FcgRIIa R; FcgRIIaR; not shown: His tag at the C terminus
T1 sequence (looked up): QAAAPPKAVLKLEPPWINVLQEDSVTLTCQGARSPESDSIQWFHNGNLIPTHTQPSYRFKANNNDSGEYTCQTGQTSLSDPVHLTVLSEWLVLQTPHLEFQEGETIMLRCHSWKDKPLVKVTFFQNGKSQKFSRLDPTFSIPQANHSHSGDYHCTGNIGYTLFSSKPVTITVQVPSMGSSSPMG

T2: FcγRIIb extracellular domain with C-terminal His tag (human, UniProt P31994 43-217)
T2 construct: extracellular domain; also called FcgRIIb; 2b; not shown: His tag at the C terminus
T2 sequence (looked up): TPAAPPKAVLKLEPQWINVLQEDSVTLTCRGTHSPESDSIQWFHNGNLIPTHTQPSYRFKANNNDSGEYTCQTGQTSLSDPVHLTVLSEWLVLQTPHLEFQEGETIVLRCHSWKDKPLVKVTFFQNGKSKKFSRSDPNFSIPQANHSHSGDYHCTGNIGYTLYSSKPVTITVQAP

T3: FcγRIIa H type extracellular domain with C-terminal His tag (human, UniProt P12318 34-217)
T3 construct: extracellular domain; also called FcgRIIa H; FcgRIIaH; not shown: His tag at the C terminus
T3 sequence (looked up): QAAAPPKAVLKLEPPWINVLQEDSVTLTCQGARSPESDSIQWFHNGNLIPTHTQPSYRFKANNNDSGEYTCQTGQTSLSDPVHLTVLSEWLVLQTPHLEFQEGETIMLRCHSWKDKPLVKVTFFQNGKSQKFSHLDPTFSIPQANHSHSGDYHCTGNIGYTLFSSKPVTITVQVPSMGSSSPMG


Assays:
Experiment in all cases: SPR (Biacore), antibody captured on chip, soluble FcgR as analyte; experiment 1
[1] = biological target: T4, FcγRIIIa F type extracellular domain with C-terminal His tag (human, UniProt P08637 17-208)
T4 construct: extracellular domain; also called FcgRIIIa F; FcgRIIIaF; not shown: His tag at the C terminus
Description: (§1) Antibodies of interest were analyzed for the interaction to FcgR according to the method described in Reference Example 8.
(§2) Analysis of interaction between obj ective antibody and the FcγR was carried out using Biacore T100 (GE Healthcare), Biacore T200, Biacore A100, and Biacore 4000. HBS-EP+ (GE Healthcare) was used as the running buffer, and the measurement temperature was set to 25° C. Chips produced by immobilizing the antigen peptide by the amine coupling method to a Series S sensor Chip CM5 (GE Healthcare), chips produced by allowing preliminarily biotinylated antigen peptides to interact with and immobilize onto a Series S Sensor Chip SA (certified) (GE Healthcare), chips produced by immobilizing Protein L (ACTIGEN, BioVision) to Series S Sencor Chip CM5 (GE Healthcare), or chips produced by immobilizing Protein A/G (Thermo Scientific) to Series S Sencor Chip CM5 (GE Healthcare) were used. Antibodies of interest were captured onto these chips, and allowed to interact to each FcγR diluted with running buffer. To regenerate and repeatedly use the chip, the antibodies captured onto the chip were washed off by reacting 10 mM glycine-HCl, pH 1.5.

[2] = biological target: T1, FcγRIIa R type extracellular domain …
Description: as §1, §2

[3] = biological target: T5, FcγRIIIa V type extracellular domain with C-terminal His tag (human, UniProt P08637 17-208)
T5 construct: extracellular domain; also called FcgRIIIa V; FcgRIIIaV; not shown: His tag at the C terminus
Description: as §1, §2

[4] = biological target: T2, FcγRIIb extracellular domain with …
Description: as §1, §2

[5] = biological target: T3, FcγRIIa H type extracellular domain …
Description: as §1, §2

[6] = biological target: T6, FcγRIa extracellular domain with C-terminal His tag (human, UniProt P12314 16-292)
T6 construct: extracellular domain; also called FcgRI; FcgRIa; not shown: His tag at the C terminus
Description: as §1, §2

T6 sequence (P12314 16-292): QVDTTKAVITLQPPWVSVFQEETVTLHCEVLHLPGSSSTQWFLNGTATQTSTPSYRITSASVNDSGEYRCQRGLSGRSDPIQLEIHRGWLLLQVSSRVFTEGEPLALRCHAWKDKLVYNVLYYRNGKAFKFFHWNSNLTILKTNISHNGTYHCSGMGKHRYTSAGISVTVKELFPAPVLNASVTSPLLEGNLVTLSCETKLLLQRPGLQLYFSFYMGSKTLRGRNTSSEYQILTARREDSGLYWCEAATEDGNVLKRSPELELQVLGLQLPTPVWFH
T4 sequence (P08637 17-208): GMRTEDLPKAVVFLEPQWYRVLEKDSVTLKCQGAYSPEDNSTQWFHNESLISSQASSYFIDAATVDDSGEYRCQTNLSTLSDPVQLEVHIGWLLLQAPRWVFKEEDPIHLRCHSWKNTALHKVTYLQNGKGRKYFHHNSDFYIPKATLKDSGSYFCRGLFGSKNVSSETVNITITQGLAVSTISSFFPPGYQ
T5 sequence (P08637 17-208 F176V): as the sequence (P08637 17-208) above, with F160V counted along it

| Kd [1] | Kd [2] | Kd [3] | Kd [4] | Kd [5] | Kd [6] | Binder |
| --- | --- | --- | --- | --- | --- | --- |
| 5 nM | 280 nM | 1.3 nM | 1400 nM | 86 nM | 0.1 nM | H240-FA012/H240-FB056/L73-k0 (antibody, human IgG1, kappa, Heterodimerized anti-EREG IgG1 antibody; A chain altered from H240-AK072, B chain altered from H240-BH076) heavy 1: QDQLVQSGAEVKKPGASVKVSCKASGFNIKDTYIQWVRQAPGQGLEWMGRIDPLRKQTKYREKFEGRVTITADTSTNTAYMELSSLRSEDTAVYYCVRSGREFDYWGQGTLVTVSSASTKGPSVFPLAPSSKSTSGGTAALGCLVKDYFPEPVTVSWNSGALTSGVHTFPAVLQSSGLYSLSSVVTVPSSSLGTKTYICNVNHKPSNTKVDKKVEPKSCDKTHTCPPCPAPEYYWGPSVFLFPPKPKDTLMISRTPEVTCVVVDVSDEEPKVKFNWYVDGVEVHNAKTKPREEQYNATYRVVSVLTVLHQDWLNGKEYKCKVSNKALPAPIEKTISKAKGQPREPQVYTLPPSRKEMTKNQVSLTCLVKGFYPSDIAVEWESNGQPENNYKTTPPVLDSDGSFFLYSKLTVDKSRWQQGNVFSCSVMHEALHNRYTQKSLSLSP heavy 2: QDQLVQSGAEVKKPGASVKVSCKASGFNIKDTYIQWVRQAPGQGLEWMGRIDPLRKQTKYREKFEGRVTITADTSTNTAYMELSSLRSEDTAVYYCVRSGREFDYWGQGTLVTVSSASTKGPSVFPLAPSSKSTSEGTAALGCLVEDYFPEPVTVSWNSGALTSGVHTFPAVLQSSGLYSLSSVVTVPSSSLGTQTYICNVDHKPSNTKVDKKVEPKSCDKTHTCPPCPAPELLGGPSVFLFPPKPKDTLMISRTPEVTCVVVDVSHEEPEVQFNWYVDGVEVHNAETKPREEQYNSTYRVVSVLTVLHQDWLNGKEYKCKVSNDALPMPIEETISKAKGQPREPQVYTLPPSREEMTKNQVSLTCLVKGFYPSDIAVEWESNGQPENNYKTTPPVLDSDGSFFLYSKLTVDKSRWQQGNVFSCSVMHEALHNHYTQESLSLSP light: DIQMTQSPSSLSASVGDRVTITCRASQDIHKYIAWYQQKPGQAPRLLIQYTSTLQPGVPSRFSGSGSGTDYTFTISSLQPEDIATYYCLQYEQLRTFGGGTKVEIKRTVAAPSVFIFPPSDEQLKSGTASVVCLLNNFYPREAKVQWKVDNALQSGNSQESVTEQDSKDSTYSLSSTLTLSKADYEKHKVYACEVTHQGLSSPVTKSFNRGEC |
| 4.4 nM | 290 nM | 1.3 nM | 1600 nM | 93 nM | 0.089 nM | H240-FA024/H240-FB059/L73-k0 (antibody, human IgG1, kappa, Heterodimerized anti-EREG IgG1 antibody; A chain altered from H240-AK072, B chain altered from H240-BH076) heavy 1: QDQLVQSGAEVKKPGASVKVSCKASGFNIKDTYIQWVRQAPGQGLEWMGRIDPLRKQTKYREKFEGRVTITADTSTNTAYMELSSLRSEDTAVYYCVRSGREFDYWGQGTLVTVSSASTKGPSVFPLAPSSKSTSGGTAALGCLVKDYFPEPVTVSWNSGALTSGVHTFPAVLQSSGLYSLSSVVTVPSSSLGTKTYTCNVNHKPSNTKVDKKVEPKSCDKTHTCPPCPAPEYYWGPSVFLFPPKPKDTLMISRTPEVTCVVVDVSDEEPKVKFNWYVDGVEVHNAKTKPREEQYNATYRVVSVLTVLHQDWLNGKEYKCKVSNKALPAPIEKTISKAKGQPREPQVYTLPPSRKEKTKNQVSLTCLVKGFYPSDIAVEWESNGQPENNYKTTPPVLDSDGSFFLYSKLTVDKSRWQQGNVFSCSVMHEALHNRYTQKSLSLSP heavy 2: QDQLVQSGAEVKKPGASVKVSCKASGFNIKDTYIQWVRQAPGQGLEWMGRIDPLRKQTKYREKFEGRVTITADTSTNTAYMELSSLRSEDTAVYYCVRSGREFDYWGQGTLVTVSSASTKGPSVFPLAPSSKSTSGETAALGCLVEDYFPEPVTVSWNSGALTSGVHTFPAVLQSSGLYSLSSVVTVPSSSLGTQTYICNVNHKPSNTKVDKKVEPKSCDKTHTCPPCPAPELLGGPSVFLFPPKPKDTLMISRTPEVTCVVVDVSHEEPEVQFNWYVDGVEVHNAETKPREEQYNSTYRVVSVLTVLHQDWLNGKEYKCKVSNDALPMPIEETISKAKGQPREPQVYTLPPSREEMTKNQVSLTCLVKGFYPSDIAVEWESNGQPENNYKTTPPVLDSDGSFFLYSKLTVDKSRWQQGNVFSCSVMHEALHNHYTQESLSLSP light: DIQMTQSPSSLSASVGDRVTITCRASQDIHKYIAWYQQKPGQAPRLLIQYTSTLQPGVPSRFSGSGSGTDYTFTISSLQPEDIATYYCLQYEQLRTFGGGTKVEIKRTVAAPSVFIFPPSDEQLKSGTASVVCLLNNFYPREAKVQWKVDNALQSGNSQESVTEQDSKDSTYSLSSTLTLSKADYEKHKVYACEVTHQGLSSPVTKSFNRGEC |
| 4.7 nM | 330 nM | 1.3 nM | 1900 nM | 110 nM | 0.095 nM | H240-FA024/H240-FB064/L73-k0 (antibody, human IgG1, kappa, Heterodimerized anti-EREG IgG1 antibody; A chain altered from H240-AK072, B chain altered from H240-BH076) heavy 1: QDQLVQSGAEVKKPGASVKVSCKASGFNIKDTYIQWVRQAPGQGLEWMGRIDPLRKQTKYREKFEGRVTITADTSTNTAYMELSSLRSEDTAVYYCVRSGREFDYWGQGTLVTVSSASTKGPSVFPLAPSSKSTSGGTAALGCLVKDYFPEPVTVSWNSGALTSGVHTFPAVLQSSGLYSLSSVVTVPSSSLGTKTYTCNVNHKPSNTKVDKKVEPKSCDKTHTCPPCPAPEYYWGPSVFLFPPKPKDTLMISRTPEVTCVVVDVSDEEPKVKFNWYVDGVEVHNAKTKPREEQYNATYRVVSVLTVLHQDWLNGKEYKCKVSNKALPAPIEKTISKAKGQPREPQVYTLPPSRKEKTKNQVSLTCLVKGFYPSDIAVEWESNGQPENNYKTTPPVLDSDGSFFLYSKLTVDKSRWQQGNVFSCSVMHEALHNRYTQKSLSLSP heavy 2: QDQLVQSGAEVKKPGASVKVSCKASGFNIKDTYIQWVRQAPGQGLEWMGRIDPLRKQTKYREKFEGRVTITADTSTNTAYMELSSLRSEDTAVYYCVRSGREFDYWGQGTLVTVSSASTKGPSVFPLAPSSKSTSESTAALGCLVKDYFPEPVTVSWNSGALTSGVHTFPAVLQSSGLYSLSSVVTVPSSNFGTQTYTCNVDHKPSNTKVDKTVEPKSCDKTHTCPPCPAPELLGGPSVFLFPPKPKDTLMISRTPEVTCVVVDVSHEEPEVQFNWYVDGVEVHNAKTKPREEQYNSTYRVVSVLTVLHQDWLNGKEYKCKVSNDALPMPIEETISKAKGQPREPQVYTLPPSREEMTKNQVSLTCLVKGFYPSDIAVEWESNGQPENNYKTTPPVLDSDGSFFLYSKLTVDKSRWQQGNVFSCSVMHEALHNHYTQESLSLSP light: DIQMTQSPSSLSASVGDRVTITCRASQDIHKYIAWYQQKPGQAPRLLIQYTSTLQPGVPSRFSGSGSGTDYTFTISSLQPEDIATYYCLQYEQLRTFGGGTKVEIKRTVAAPSVFIFPPSDEQLKSGTASVVCLLNNFYPREAKVQWKVDNALQSGNSQESVTEQDSKDSTYSLSSTLTLSKADYEKHKVYACEVTHQGLSSPVTKSFNRGEC |
